According to patent publication US12577303B2:
Where a chain is given by its changes, count along the chain named. Read-outs that look alike come from different tables or passages of the source. One block for each binder: values may come before it.

What was measured:
[1] = biological target: human Sirpα-V1 recombinant protein (human) (UniProt P78324); test: ELISA
[2] = biological target: human Sirpα-V1-hFc (human) (UniProt P78324); test: blocking ELISA: hSirpα (dimer) to hCD47
[3] = biological target: human Sirpα-V1-his (human) (UniProt P78324); test: blocking ELISA: hSirpα to hCD47 (dimer)
[4] = biological target: human Sirpα-V1 recombinant protein (human) (UniProt P78324); test: ELISA, subclone supernatant
[5] = biological target: human Sirpα-V2-his (human); test: ELISA, subclone supernatant
[6] = biological target: human Sirpα-V1-his (human) (UniProt P78324); test: blocking ELISA: hSirpα-V1-his, hCD47-Fc (dimer)
[7] = biological target: human Sirpα-V1-hFc (human) (UniProt P78324); test: blocking ELISA: hSirpα-V1-hFc (dimer), hCD47-his
[8] = biological target: Cyno Sirpα L932 (cynomolgus); test: ELISA
[9] = biological target: Cyno Sirpα L933 (cynomolgus); test: ELISA
[10] = biological target: Cyno Sirpα L936 (cynomolgus); test: ELISA
[11] = biological target: Cyno Sirpα L937 (cynomolgus); test: ELISA
[12] = biological target: human Sirpα-V1 recombinant protein (human) (UniProt P78324); test: ELISA; remark: listed apart in the source
[13] = biological target: human Sirpα-V2-his (human); test: ELISA
[14] = biological target: human Sirpα-V1-hFc (human) (UniProt P78324); test: blocking ELISA: hSirpα (dimer) to hCD47; remark: listed apart in the source
[15] = biological target: human Sirpα-V1-his (human) (UniProt P78324); test: blocking ELISA: hSirpα to hCD47 (dimer); remark: listed apart in the source

Chain of Cyno Sirpα L932 (cynomolgus) (chain, as listed by the source): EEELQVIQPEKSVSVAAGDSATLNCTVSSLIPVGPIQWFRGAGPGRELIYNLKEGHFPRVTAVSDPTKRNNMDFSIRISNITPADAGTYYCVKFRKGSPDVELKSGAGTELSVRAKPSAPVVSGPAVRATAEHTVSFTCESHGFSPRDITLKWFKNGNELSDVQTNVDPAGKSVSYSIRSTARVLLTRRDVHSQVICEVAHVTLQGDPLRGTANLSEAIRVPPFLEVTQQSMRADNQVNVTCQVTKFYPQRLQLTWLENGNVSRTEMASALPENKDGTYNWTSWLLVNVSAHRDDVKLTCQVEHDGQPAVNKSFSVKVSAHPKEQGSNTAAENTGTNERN
Chain of Cyno Sirpα L933 (cynomolgus) (chain, as listed by the source): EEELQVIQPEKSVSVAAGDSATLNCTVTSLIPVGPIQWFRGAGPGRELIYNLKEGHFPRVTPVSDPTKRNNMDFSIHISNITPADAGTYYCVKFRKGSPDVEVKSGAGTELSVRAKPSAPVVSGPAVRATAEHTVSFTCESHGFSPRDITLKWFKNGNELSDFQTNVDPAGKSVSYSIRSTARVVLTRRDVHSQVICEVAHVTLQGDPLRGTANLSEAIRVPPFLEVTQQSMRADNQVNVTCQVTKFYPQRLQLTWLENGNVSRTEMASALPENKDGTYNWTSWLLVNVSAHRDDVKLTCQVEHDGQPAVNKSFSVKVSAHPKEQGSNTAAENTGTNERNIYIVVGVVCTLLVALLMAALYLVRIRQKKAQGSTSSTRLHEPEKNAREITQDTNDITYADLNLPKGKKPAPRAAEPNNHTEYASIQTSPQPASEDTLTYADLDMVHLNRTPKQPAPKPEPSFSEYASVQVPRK
Chain of Cyno Sirpα L937 (cynomolgus) (chain, as listed by the source): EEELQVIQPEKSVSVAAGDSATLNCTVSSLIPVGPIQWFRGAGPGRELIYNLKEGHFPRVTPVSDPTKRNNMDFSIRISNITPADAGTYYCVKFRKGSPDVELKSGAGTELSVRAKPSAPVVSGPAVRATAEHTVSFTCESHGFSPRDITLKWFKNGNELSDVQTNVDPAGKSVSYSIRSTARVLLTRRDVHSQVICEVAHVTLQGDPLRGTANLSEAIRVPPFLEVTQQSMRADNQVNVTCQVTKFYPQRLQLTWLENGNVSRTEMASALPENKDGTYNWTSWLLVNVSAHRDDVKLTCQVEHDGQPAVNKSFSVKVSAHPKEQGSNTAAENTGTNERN
Chain of Cyno Sirpα L936 (cynomolgus) (chain, as listed by the source): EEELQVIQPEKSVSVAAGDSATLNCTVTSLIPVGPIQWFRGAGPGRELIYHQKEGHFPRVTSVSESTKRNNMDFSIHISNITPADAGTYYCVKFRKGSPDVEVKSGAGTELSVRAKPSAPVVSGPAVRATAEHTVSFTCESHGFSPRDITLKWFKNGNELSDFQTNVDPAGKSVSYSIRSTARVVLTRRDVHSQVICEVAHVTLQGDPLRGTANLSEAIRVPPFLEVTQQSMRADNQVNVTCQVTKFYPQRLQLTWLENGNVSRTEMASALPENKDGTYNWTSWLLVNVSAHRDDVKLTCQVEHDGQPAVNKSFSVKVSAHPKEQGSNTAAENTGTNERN

B3: mab14-h6 (antibody, V domains shown)
VH: QVQLVQSGAEVKKPGASVKVSCKASGYNFNIYWINWVKQAPGQGLEWIGNIYPSSISTNYNEKFKTRATLTVDTSTSTVYMELSSLRSEDTAVYYCARSEGTYYGGRYEGDWFGYWGQGTLVTVSS
VL: DIQMTQSPSSLSASVGDRVTITCRASQDIRNYLNWYQQKPGGTVKLLIYFTSTLHSGVPSRFSGSGSGTDYTLTISSLQPEDFATYYCQQGNTLPWTFGGGTKVEIKR
- EC50 [1]: 0.095 nM

B5: mab14-h3 (antibody, V domains shown)
VH: B3 VH with K38R, I48M
VL: B3 VL
- EC50 [1]: 0.103 nM

B6: mab14-h4 (antibody, V domains shown)
VH: B3 VH with K38R
VL: B3 VL
- EC50 [1]: 0.088 nM

B7: 14H6E5B5C8G2 (antibody, V domains shown)
VH: QVHLQQPGAELVKPGASVKLSCKASGYNFNIYWINWVKQRPGQGLEWIGNIYPSSISTNYNEKFKTKATLTVDKSSNTVYMQFSSLTSEDSAVYYCARSEGTYYGGRYEGDWFGYWGQGTLVTVSA
VL: DIQMTQTTSSLSASLGDRVTISCRASQDIRNYLNWYQQKPDGTVKLLIYFTSTLHSGVPSRFSGSGSGTDYSLTISNLEQEDIATYFCQQGNTLPWTFGGGTKLEIK
- ELISA value, activity of binding [4]: 1.27
- ELISA value, activity of binding [5]: 1.25
- ELISA value of the blocking assay [6]: 0.42
- ELISA value of the blocking assay [7]: 0.069

B8: human-murine chimeric antibody mab14c (antibody, V domains shown)
VH: B7 VH
VL: DIQMTQTTSSLSASLGDRVTISCRASQDIRNYLNWYQQKPDGTVKLLIYFTSTLHSGVPSRFSGSGSGTDYSLTISNLEQEDIATYFCQQGNTLPWTFGGGTKLEIKR
- EC50 [8]: 0.1 nM
- EC50 [9]: 0.14 nM
- EC50 [10]: 0.099 nM
- EC50 [11]: 0.099 nM
- EC50 [12]: 0.16 nM
- EC50 [13]: 0.14 nM
- EC50 [1]: 0.093 nM
- IC50 [14]: 5.7 nM
- IC50 [15]: 5.54 nM
- IC50 [2]: 5.48 nM
- IC50 [3]: 9.98 nM

Continued, values first:

- EC50 [1]: 0.073 nM
B1: mab14-h2 (antibody, V domains shown)
VH: B3 VH with R67K, T74K, L83F
VL: B3 VL

- EC50 [1]: 0.081 nM
B2: mab14-h7 (antibody, V domains shown)
VH: B3 VH with R67K
VL: B3 VL

- EC50 [1]: 0.061 nM
- IC50 [2]: 8.99 nM
- IC50 [3]: 8.47 nM
B4: mab14-h5 (antibody, V domains shown)
VH: B3 VH with K38R, T74K
VL: B3 VL
